# From the DeepSol protein solubility set
# Assay: soluble on expression in E. coli; label from the status in PepcDB or PDB records
row,Sequence,soluble on expression in E. coli
1,GPGSMTEKPAKEPPLPRDLKAQFDVLAGTRWDGVGDDADAAEQLSQLRQEWKALGNACYGKGYFLAAIRCYSRLLEVPGGDTAQIRSNRSAAYLQSPMLVGPSLALKDAEKAVELDPQWFKAHLRVGDAHRKRGHFAEAEAAYREALARQPECATALAGLRALQVESAGLPAAAATFPRGHAERTPYHNAPPSPRSLSSRTTAHAVAVAQAKEEELQLTQEQLVHKWKADISTREGRTGCRPRQASLSQADRQHGAAIKQALLARFRDKLESNGEFSAILRNRCEEAMLRGEGINYRDADKLRNTYSHATNGIGLGISSDAYKEYTGRVDHRTW,soluble
2,MGSDKIHHHHHHMTPEKIEQIFRSFKEKKIAVIGDVMIDKYIFGHVSRISPEYPVPVVDVNRESSRLGGAANVAVNIHALGAEALLIGVTGDDTERRNLEALMTEHGLNPAMLAADSTRPTTCKTRILSQNHHITRVDYESRTPVDAELEKRLLGMFMEIANAVDAVVLEDYNKGVLTPSLIVSLIAACRERNKPVLVDPKLKGFFSYGGCSVFKPNLSELAASLGIPVANDDREVEQACLLLGEKLTVESLVVTRSEKGMTVYDGSFTHIPALSLDVADVSGAGDTVIGTLALGLASGLDLVTSTRIANLAANTVCQEVGAVPVRPDKLFSACLAHLQ,not soluble
3,MGSDKIHHHHHHMTISEARLSPQVNLLPIKRHSNEEVEETAAILKKRTIDNEKCKDSDPGFGSLQRRLLQQLYGTLPTDEKIIFTYLQDCQQEIDRIIKQSIIQKESHSVILVGPRQSYKTYLLDYELSLLQQSYKEQFITIRLNGFIHSEQTAINGIATQLEQQLQKIHGSEEKIDDTSLETISSGSLTEVFEKILLLLDSTTKTRNEDSGEVDRESITKITVVFIFDEIDTFAGPVRQTLLYNLFDMVEHSRVPVCIFGCTTKLNILEYLEKRVKSRFSQRVIYMPQIQNLDDMVDAVRNLLTVRSEISPWVSQWNETLEKELSDPRSNLNRHIRMNFETFRSLPTLKNSIIPLVATSKNFGSLCTAIKSCSFLDIYNKNQLSNNLTGRLQSLSDLELAILISAARVALRAKDGSFNFNLAYAEYEKMIKAINSRIPTVAPTTNVGTGQSTFSIDNTIKLWLKKDVKNVWENLVQLDFFTEKSAVGLRDNATAAFYASNYQFQGTMIPFDLRSYQMQIILQELRRIIPKSNMYYSWTQL,not soluble
4,MGSDKIHHHHHHVAFSAKASLATAIGRSSYWFLHTFLKGGSSLPGQIANRIDPQVLRTLGQNYDVIVVTGTNGKTLTTSLIVKVLKKKYKEVLTNPTGSNMLQGITTAFLAQPKRGHGRGIAVLEVDEANVAPVAAQLKPKAFVLTNIFRDQMDRYGEFYTTYQKILDGVTRDPEAMVIANGDAPIFSSRKLPNPVTYYGFELTANGDHKAPPNTDGVLCPVCQHILHYHAQTYANLGNYFCPHCGFKRPALTHQITEVTQMTPQSSDFMIDDQPCHIDIGGMYNIYNALAAFAVGRAFGVTPTEISQAFAYDEKVFGRQEVIQLGKKKLTLILVKNPVGLNQVLSMIETAKQPFGFAMLLNANYADGIDTSWIWDGNFEELVASQKAASYLVGGERYKDIGLRLTVAGVPEKALVSKPALDDVISTLKRSQQDQLYVLATYTAMLQLRKKLSDGGYIKAGF,not soluble
5,MSAICQVTGRQPGYGKSVSHSHRRTSRRWNPNVQRRKFYLPSEGRTITLNVSTKGLKVIDRDGIESVVAKIRARGEKILEHHHHHH,not soluble
6,MGSDKIHHHHHHMSTIQIKQLNFAYDGQAPLFTNTTLDLDTNWHLGLVGRNGRGKTTLLRILQQALPYSGTVTVPLQLQYFPQTLDETQLTLTAAQAITDVAQWQLERELNLLHADPNILWRPFVDLSGGEQTKVRLALLFIQDNGVALIDEPTNHLDLRSRRQVAAYLQQKPGFIVVSHDRDFLDSITDHTLAIQRQQITLYQGNFSTFMTEKERQDQTELAKNGQLKTEITRLKRTTHDKKVWAENKEKSIYGNPHIKDSGHNAGRGFISARAARTMKKSKNLEHRMTKEIDEKESLLKNLEKVDPLTMLPVSTHHHQLVVAEKVQVGFDQPLFQPISFTLTRGDRIAIVGDNGSGKSTLIRALLKQFTGMQSGHLTLAPVSLSLVRQQYTDNRGTLVDFAKQHQLSRETLLNNLRKLGMPRADFNTSIEHLSMGQQKKVELARSLATPGALYVWDEPLNYLDTYNQDQLVAAIKHYQPTMLFVEHDEHFIEQVATKIIRLQP,not soluble
7,SLGLKAAQKTLFPLRSIDDVVRLFAAELGREEPDLVLLSLVLGFVEHFLAVNRVIPTNVPELTFQPSPAPDPPGGLTYFPVADLSIIAALYARFTAQIRGAVDLSLYPREGGVSSRELVKKVSDVIWNSLSRSYFKDRAHIQSLFSFITGWSPVGTKLDSSGVAFAVVGACQALGLRDVHLALSEDHAWVVFGPNGEQTAEVTWHGKGNEDRRGQTVNAGVAERSWLYLKGSYMRCDRKMEVAFMVCAINPSIDLHTDSLELLQLQQKLLWLLYDLGHLERYPMALGNLADLEELEPTPGRPDPLTLYHKGIASAKTYYRDEHIYPYMYLAGYHCRNRNVREALQAWADTATVIQDYNYCREDEEIYKEFFEVANDVIPNLLKEAASLLEAGEERPGEQSQGTQSQGSALQDPECFAHLLRFYDGICKWEEGSPTPVLHVGWATFLVQSLGRFEGQVRQKVRIVSREAEAAEAEEPWGEEAREGRRRGPRRESKPEEPPPPKKPALDKGLGTGQGAVSGPPRKPPGTVAGTARGPEGGSTAQVPAPAASPPPEGPVLTFQSEKMKGMKELLVATKINSSAIKLQLTAQSQVQMKKQKVSTPSDYTLSFLKRQRKG,soluble
8,MGSDKIHHHHHHMSDQRYNLRGVSASKEDVHNAIKNIDKGIFPKAFCKIIPDILGGDPEYCNIMHADGAGTKSSLAYMYWKETGDLSVWKGIAQDALIMNIDDLLCVGAVDNILVSSTIGRNKLLVPGEVISAIINGTDELLAELREMGVGCYATGGETADVGDLVRTIIVDSTVTCRMKRSDVIDNKNIQGGDVIVGLASSGQATYEKEYNGGMGSNGLTSARHDVFSKYLAKKYPESYDAAVPKELVYSGGLKLTDKIEELGIDAGKMVLSPTRTYAPVIKVLLDKLRSQIHGMVHCSGGAQTKVMHFVENKRVTKDNLFPIPPLFRTIQEQSGTDWSEMYKVFNMGHRMEIYIAPEHAEEVIGISKSFGIDAQIVGFVEEADKNELIIESEKGRFTY,not soluble
9,MGSDKIHHHHHHMSGFSPELIDYLEGKISFEEFERRREERKTREKKSLQEKGKLSAEENPDDSEVPSSSGINSTKSQDKDVSEGETSDGVRKSVHKVFASMLGENEDDEEEEEEEEEEEEEEETPEQPTAGDVFVLEMVLNRETKKMMKEKRPRSKLPRALRGLMGEANIRFARGEREEAILMCMEIIRQAPLAYEPFSTLAMIYEDQGDMEKSLQFELIAAHLNPSDTEEWVRLAEMSLEQDNIKQAIFCYTKALKYEPTNVRYLWERSSLYEQMGDHKMAMDGYRRILNLLSPSDGERFMQLARDMAKSYYEANDVTSAINIIDEAFSKHQGLVSMEDVNIAAELYISNKQYDKALEIITDFSGIVLEKKTSEEGTSEENKAPENVTCTIPDGVPIDITVKLMVCLVHLNILEPLNPLLTTLVEQNPEDMGDLYLDVAEAFLDVGEYNSALPLLSALVCSERYNLAVVWLRHAECLKALGYMERAAESYGKVVDLAPLHLDARISLSTLQQQLGQPEKALEALEPMYDPDTLAQDANAAQQELKLLLHRSTLLFSQGKMYGYVDTLLTMLAMLLKVAMNRAQVCLISSSKSGERHLYLIKVSRDKISDSNDQESANCDAKAIFAVLTSVLTKDDWWNLLLKAIYSLCDLSRFQEAELLVDSSLEYYSFYDDRQKRKELEYFGLSAAILDKNFRKAYNYIRIMVMENVNKPQLWNIFNQVTMHSQDVRHHRFCLRLMLKNPENHALCVLNGHNAFVSGSFKHALGQYVQAFRTHPDEPLYSFCIGLTFIHMASQKYVLRRHALIVQGFSFLNRYLSLRGPCQESFYNLGRGLHQLGLIHLAIHYYQKALELPPLVVEGIELDQLDLRRDIAYNLSLIYQSSGNTGMAQTLLYTYCSI,not soluble
10,MLTSFGKTLRKLRIDHSERLLDMADKPGVSVAFLSSVEIGKKSVPVGMEEKIIEFYSLDKAMASLLKKEADACVERTSQSNLLIHLVVKLLACFLEI,not soluble
11,MGSDKIHHHHHHAPTSIPDSALRTAAQLREQALADSTGFAVVESLTTEVGPRIAGGEADPRAVAWAKAKFKSLGFDKVWTEPVTFPKWERRSEQAAVIGAHAQPLHITALGGSPGGTVEGEIVRFENLAALQAAPAGSLAGKIAFVDYQMVKARDGKDYGNGGAVRSKGPSEAIRKGAIGFVMRSAGTDSHRVPHTGITRFDEGLTPVPAAALSVPDANQLARLAALGSTRVRLALDCGWDGTATSYNVIGEITGRSKPKEVVVIGGHLDSWDLGTGAIDDGAGVAITMAAGHLIGQLKQAPKRTIRVVAFANEEQGLYGGKAYAAAHGKDAKDMALHQIGAESDFGAGRIYAFNTGSAAPEQSRAAT,not soluble
12,MPIAQLLELWKKIEVEPMEIETTEEDLNLDVGPATEDTAEEGKSDSAACKTKVAGSVEEEGVVKEIDISHHVKEGFEKADPSQFELLKVLGQGSYGKVFLVRKVKGSDAGQLYAMKVLKKATLKVRDRVRSKMERDILAEVNHPFIVKLHYAFQTEGKLYLILDFLRGGDLFTRLSKEVMFTEEDVKFYLAELALALDHLHSLGIIYRDLKPENILLDEEGHIKITDFGLSKEAIDHDKRAYSFCGTIEYMAPEVVNRRGHTQSADWWSFGVLMFEMLTGSLPFQGKDRKETMALILKAKLGMPQFLSGEAQSLLRALFKRNPCNRLGAGIDGVEEIKRHPFFVTIDWNTLYRKEIKPPFKPAVGRPEDTFHFDPEFTARTPTDSPGVPPSANAHHLFRGFSFVASSLIQEPSQQDLHKVPVHPIVQQLHGNNIHFTDGYEIKEDIGVGSYSVCKRCVHKATDTEYAVKIIDKSKRDPSEEIEILLRYGQHPNIITLKDVYDDGKFVYLVMELMRGGELLDRILRQRYFSEREASDVLCTITKTMDYLHSQGVVHRDLKPSNILYRDESGSPESIRVCDFGFAKQLRAGNGLLMTPCYTANFVAPEVLKRQGYDAACDIWSLGILLYTMLAGFTPFANGPDDTPEEILARIGSGKYALSGGNWDSISDAAKDVVSKMLHVDPHQRLTAMQVLKHPWVVNREYLSPNQLSRQDVHLVKGAMAATYFALNRTPQAPRLEPVLSSNLAQRRGMKRLTSTRL,soluble
13,SAVERVEILRDGAAAQYGSDAIAGVVNIILKAKSTGGGIAYQYGGYTQGDGDQQKILGWKSFALPNDGSVTVAFDAGKRDAANNTLPDSRKFYNSSSSTNAQYNDQNTPYRTWRFGSPEIKDQINLSYNADLPLADDTSLYSFGTYGHRKTIGEGFYEPSTATAAVNQSIYYKERYPDGRIPLSIVTVDDFALTAGAKKGDQKTGKLDGFVTYGRNKVHTDQDNGINPSYGSGSPSSYSLGDNIFSQLNTGLDYSLDANTSWFYHPITVSTGILYRWEQYQQVAGDPVAYTRGPYYNVTTAPEIYSGITDADQRKIDRNVYGAYLDLETEIVKDLNVGVALRSEKYSDFGNTTNGKLTLKYDFDPKLNLRGSASTGYRAPS,not soluble
14,MSLNKVWLTGLLTATASGVFSASTLAATEITWWHAMGGQLGEMVNQLATDFNASQSDYKLTPVYKGSYTETLTTGIAAFRAGQAPNILQVFDAGAATIMSSKGVAKPVQDLMIESGYPFTAQDYIAGVRNFYADNTGKMVGMPFNSSTPVLYYNKDMLASVNAQAPQTYEQLEQVAAKLAEKGQAGFAQSLAPWIMFENFKSRHNLPLSDKQNGYQDLSTKIMFNSDDMLMHVKKLKEWSDKGYYKYYGSDWDANQTPFERGEVAMWMGSSGSFGGLRNRVKFNLGTTYLPYWESVTKNPTHTFIGGAALFALQGHTPAQDKGVAAFFAYLTKPETQMNWHKTTGYVPVTNAAYDLTKQSGYYQENPDAEVGVKQLSLPDGEWTKGYRLGYYPQVREVMHREFDNIFSGRSTVESSLNKVEDESAKLLNRFARTVQEGGSHHHHHH,soluble
15,MSPPDLEDEPFMENQDVAGENDLFVLDGRQDPPNLPQNHLEEVVGEIVENLERWHFAEILADGAEIHEDIIEDVGGDEVEEEEVDIDWVSPLSKEYSKPFSKS,not soluble
